Source: patent US20240026383A1 (priority 2020, published 2024)
Changes are numbered by the printed parent chain. “And” between values parts separate entries of the source, which are not always exact repeats. Equal values may be shown once. Read-outs that look alike come from different tables or passages of the source.

B1: Tag1: theophylline dependent T4 td intron after ATG of FnCas12a; −4P, −5P, −6P; 5′ exon TCCtcaGGT; SEQ ID NO: 49 (nucleic acid)
DNA: TCCTCAGGTTAATTGAGGCCTGAGTATAAGGTGACTTATACTTGTAATCTATCTAAACGGGGAACCTCTCTAGTAGACAATCCCGTGCTAAATTGATACCAGCATCGTCTTGATGCCCTTGGCAGCATAAATGCCTAACGACTATCCCTTTGGGGAGTAGGGTCAAGTGACTCGAAACGATAGACAACTTGCTTTAACAAGTTGGAGATATAGTCTGCTCTGCATGGTGACATGCAGCTGGATATAATTCCGGGGTAAGATTAACGACCTTATCTGAACATAATGCTA
modifications: Tag1 T4 td intron with the theophylline aptamer
B2: Tag2: theophylline dependent T4 td intron tag; −4W, −5P, −6P; 5′ exon TCCtcgGGT; SEQ ID NO: 46 (nucleic acid)
DNA: B1 DNA
modifications: Tag2 T4 td intron with the theophylline aptamer
B3: Tag4: theophylline dependent T4 td intron tag; −4M, −5P, −6P; 5′ exon TCCtctGGT; SEQ ID NO: 48 (nucleic acid)
DNA: B1 DNA with A6T
modifications: Tag4 T4 td intron with the theophylline aptamer
B4: Tag3: theophylline dependent T4 td intron tag; −4W, −5W, −6P; 5′ exon TCCttgGGT; SEQ ID NO: 47 (nucleic acid)
DNA: B1 DNA with C5T, A6G
modifications: Tag3 T4 td intron with the theophylline aptamer

Assays:
Flavobacterium IR1 = experiment: Theophylline toxicity assay on growth; format: cell-based; conditions: 24 hours at 25° C.
Description: Because theophylline uptake from IR1 appears to be a prerequisite, a toxicity assay was carried out on the growth of IR with varying theophylline concentrations ([…]) grown for 24 hours at 25° C. […] The arrow indicates the time when theophylline was added to the medium. […] Therefore, 2 mM of theophylline was used for inducing the intron splicing in following experiments.

[1] = tested on: lacZ gene from E. coli interrupted with the T4 td intron; experiment: LacZ colorimetric (β-galactosidase) assay of T4 td intron exon variants; format: cell-based
Text: To investigate the effect of the flanking regions of the T4 td intron on its splicing efficiency and on the expression of the target gene, a series of constructs were made containing the lacZ gene from E. coli with the intron in between amino acids D6 and S7 (see FIG. 5). These amino acids were identified because insertion at this location would be least likely to impact on the structure of the protein. The lacZ gene was used because its functional expression can be easily monitored by a colorimetric assay and because of its high tolerance for modification at the 5′ end. LacZa is interrupted with the T4 td intron and therefore non-functional. Upon self-splicing and excision of the intron, the ORF of LacZa is complete and functional. LacZa encodes for β-galactosidase which is able to hydrolyse ortho-nitrophenyl-β-D-galactopyranoside (ONPG) into β-D-galactose and ortho-nitrophenol (ONP). ONP can be measured through colorimetric assays. Mutations were made by PCR in the 5′ flank as depicted in Table 1.
All position numbers are relative to the 5′ splice site. […] Since there is the possibility of base pairing, the effect of disallowing base pairing was assessed. If there is no interaction between position −7 and the Internal Guide Sequence (IGS), (the sequence at P1 that forms the base pairing with the 5′ exon sequence), and no difference in LacZ activity should be observed. The −7 position was mutated (while all other nucleotides remained WT) to form either a wobble pair or a mismatch. The self-splicing activity of the three intron variants for β-galactosidase activity was assessed after overnight growth.
This is similar to the situation with the −7 position. Therefore, point mutations at the +296 position of the T4 td intron were made to see if they might impact on the splicing activity of the intron. The WT +296 position (mismatch) was mutated by PCR (Table 2) to form either a pair or a wobble pair with the P1 loop. All mutants were assayed for β-galactosidase activity after overnight growth.
This investigated the effect of altering positions −4 to −6 in all possible combinations of pair (P), mismatch (M) and wobble pair (W) (if applicable) whilst preserving all the other bases as WT. With reference to FIGS. 1 and 4A, positions −4 to −6 is GUU (positions −6 to −4 are UUG) and these pair or interact with UGA at positions +12 to +14, respectively.
In FIG. 8 the wild type intron (*) is (sequences shown from 5′ to 3′) PWM/(UUG) and set to 1. All other LacZ activities are a fraction of the wild type activity. PMP reads either UAA or UGA both being stop codons (**). […] A wobble base pair at position −5 negates to a large extent the effect that −6 and −4 have on the splicing. […]

FlgM gene of P. putida = experiment: Knock-out of the FlgM gene by homologous recombination with tagged-intron-FnCas12a; format: cell-based, Pseudomonas putida; conditions: T crRNA, 2 mM theophylline
Description: Further genome editing experiments were conducted to knock-out the FlgM gene of P. putida. A repair template (1125 bp) was included on the plasmids bearing approximately 500 bp homologous sides upstream and downstream of the FlgM gene. The repair template was introduced to either of the four tagged-intron-FnCas12a variants along with the T crRNA for counterselection or the NT crRNA as a control. Plasmids were transformed to P. putida through electroporation and the transformed cells were recovered in LB medium for 2 hours before plating on LB agar plates containing 50 μg ml^−1 kanamycin and 2 mM theophylline. Plates were incubated at 30° C. overnight and formed colonies were screened through colony PCR for the knock-out of the FlgM gene. […] Tag1 to Tag4 represent the four different Tagged-intron variant plasmids which contain the T (targeting) or the NT (non-targeting) crRNA. […] On the contrary, transformants bearing plasmids with an NT crRNA were all WT.

[2] = tested on: LacZ gene of E. coli MG1655; experiment: SIBR-Cas genome editing (HR and CRISPR-Cas counterselection) of LacZ; format: cell-based; conditions: for unbiased editing efficiency (LacZ deletion by PCR of randomly selected colonies): X-gal omitted from the medium; for editing efficiency: percentage of white colonies from total CFUs mL-1: blue/white screening, LacZ targeting, induced after 1 hour recovery
Text: For efficient genome editing in bacteria, HR should precede CRISPR-Cas counterselection. To assess whether tight control over CRISPR-Cas targeting could bolster the efficiency of CRISPR-Cas mediated genome editing by allowing more time for HR to occur, we used SIBR-Cas and targeted the LacZ gene of E. coli MG1655 for knock-out through HR and CRISPR-Cas counterselection using a blue/white screening colony assay. To facilitate HR, we added 500 bp up- and down-stream homology arms to the plasmids expressing the four SIBR-Cas (Int1-4) and WT-FnCas12a variants that target the LacZ gene. After 1 hour recovery, we induced the expression of the SIBR-Cas variants to counterselect the WT from the mutant colonies.
Since disruption of LacZ can also be achieved through non-HR mediated approaches (spontaneous mutations or occasional error-prone DNA repair following DNA cleavage by Cas12a), not all gene deletions can be screened phenotypically. Therefore, we repeated our experiment, but X-gal was omitted from the medium to eliminate the possibility of false-positives. Randomly selected colonies that were obtained were screened by PCR for LacZ deletion showing a 0%, 0%, 29% and 38% editing efficiency for Int1, Int2, Int3 and Int4 SIBR-Cas variants, respectively (FIG. 24C). […] The observed decrease in editing efficiency (compared to the blue/white screening) might be attributed to spontaneous LacZ mutations that escape CRISPR-Cas counterselection. Nevertheless, a high editing efficiency (38%) was observed when SIBR-Cas Int4 was used without the use of recombinases or any other complex systems.

LacZa of E. coli MG1655 = experiment: FnCas12a targeting assay with Tagged-T4 td intron variants (CFU drop plating); format: cell-based; conditions: T crRNA (LacZ), selection medium with 2 mM theophylline
Text: Four different intron variants (as shown previously in FIG. 8), referred to as “Tag1”, “Tag2”, etc. (Tag1: −4P, −5P, −6P; Tag2: −4W, […] −4W, −5W, −6P; Tag4: −4M, −5P, −6P) are inserted directly after the start codon of the GOI (FnCas12a gene). The 5′ exon sequences of the four different tags are indicated: Tag1: TCCtcaGGT (SEQ ID NO: 7); Tag2: TCCtcgGGT (SEQ ID NO: 8); Tag3: TCCttgGGT (SEQ ID NO: 9); Tag4: TCCtctGGT (SEQ ID NO: 10). The 3′ exon sequence is conserved amongst the 4 different tags and indicated as CTA (SEQ ID NO: 12). The amino acids corresponding to the Tag sequences are indicated with capital bold letters above the Tagged-introns. Intron-less (wild-type) FnCas12a was used as a reference for comparison. Efficiency of targeting of the different Tagged-T4 td intron variants was assessed by using either a LacZa targeting (T) or a non-targeting (NT) crRNA and by comparing the amount of colony forming units (CFUs) of transformed E. coli MG1655 per μg of plasmid used (CFUs μg^−1). CFU was determined by the number of colonies observed.
Electrocompetent E. coli MG1655 were transformed (2.5 kV, 200 Ω, 25 μF) with 10 ng μL^−1 of the respective plasmid and recovered for 1 hour in 500 μL LB medium [10 g L^−1 tryptone (Oxoid), 5 g L^−1 yeast extract (BD), 10 g L^−1 NaCl (Acros)] at 37° C. Then, the recovered culture was serially diluted and drop plated on selective (50 μg mL^−1 kanamycin) LB agar plates in the presence or absence of 2 mM theophylline. The agar plates were incubated at 30° C. for 24 hours and the CFUs were counted.
E. coli MG1655 was transformed with a series of plasmids (listed in Table 4) and serially diluted and drop plated on selective (kanamycin) LB media with or without 2 mM theophylline. […] The effect of the CFU reduction was more apparent for the Tag4-intron where colonies could only be observed at the 10° dilution, followed by Tag3-intron (10^−1) then Tag2-intron (10^−2) and finally Tag1-intron ([…]).

Molecule | self-splicing activity ranking of the Tag/Int variants [1] | editing efficiency (FlgM knock-out by colony PCR) (FlgM gene of P. putida) | unbiased editing efficiency (LacZ deletion by PCR of randomly selected colonies) [2] | dilution at which colonies could be observed (LacZa of E. coli MG1655) | other results
Cn1c(=O)c2[nH]cnc2n(C)c1=O [Theophylline, theophylline] |  |  |  |  | growth of IR1 (Flavobacterium IR1; 5 and 10 mM of theophylline): decreased the growth; growth of IR1 (Flavobacterium IR1; theophylline concentration of up to 2 mM): did not affect significantly the growth
B1 | most “tight” | 0% | 0% | 10^−2 | self-splicing activity ranking of the Tag/Int variants ([1]; listed as Int1): worst; editing efficiency: percentage of white colonies from total CFUs mL-1 [2]: 0%
B2 |  | 39.3% | 0% | 10^−2 | editing efficiency: percentage of white colonies from total CFUs mL-1 ([2]; listed as Int2): 1%±0.35% and 1%
B3 | most “loose” |  |  | 10° | self-splicing activity ranking of the Tag/Int variants ([1]; listed as Int4): best splicer; unbiased editing efficiency (LacZ deletion by PCR of randomly selected colonies) ([2]; listed as Int4): 38%±6.41% and 38%; editing efficiency: percentage of white colonies from total CFUs mL-1 ([2]; listed as Int4): 80%±5.57% and 80%
B4 |  | 36.6% |  | 10^−1 | unbiased editing efficiency (LacZ deletion by PCR of randomly selected colonies) ([2]; listed as Int3): 29%±18.04% and 29%; editing efficiency: percentage of white colonies from total CFUs mL-1 ([2]; listed as Int3): 49%±8.75% and 49%
